Results reported in the Human Domainome abundance scans (Beltran et al. 2025).
± gives the uncertainty stated by the source.

B1: Histone-lysine N-methyltransferase SETD2, residues 2382 to 2430; numbered along this chain, Q9BYW2 (parent)
chain: SPPKPKTIVLPPNWKTARDPEGKIYYYHVITRQTQWDPPTWESPGDDAS

Variants of: B1
Assay: abundance fitness (aPCA) (normalised: wild type 0, dead -1); higher = more abundant; growth selection in yeast, the domain comes from the species named
Details: Homo sapiens

Variant	abundance fitness
SPPKPKTIVLPPNWKTARDPEGKIYMYHVITRQTQWDPPTWESPGDDAS [Y26M]	-0.694 ± 0.12
SPPKPKTIVLPPNWKTARDPEGKIYLYHVITRQTQWDPPTWESPGDDAS [Y26L]	-0.878 ± 0.088
SPPKPKTIVLPPNWKTARDPEGKIYYYHVITRQTQWDPPTWESPGWDAS [D46W]	-0.358 ± 0.084
SPPKPKTIVLPPNWKTARDPEGKIYYYHVITRQTQWDPPTWESPGLDAS [D46L]	-0.053 ± 0.033
SPPKPKTIVLPPNWKTARDPEGKIYYYHVITRQTQWDPPTWESPGYDAS [D46Y]	-0.436 ± 0.14
SPPKPKTIVLPPNWKTARDPEGKIYYYHVITRQTQWDPPTWESPGNDAS [D46N]	-0.11 ± 0.043
SWPKPKTIVLPPNWKTARDPEGKIYYYHVITRQTQWDPPTWESPGDDAS [P2W]	-0.293 ± 0.094
SPPKPKTIVLPPNWKTARDPEGKIYYLHVITRQTQWDPPTWESPGDDAS [Y27L]	-0.534 ± 0.054
SPPKPKTIVLPPNWKTARDPEGKIYYKHVITRQTQWDPPTWESPGDDAS [Y27K]	-0.261 ± 0.082
SPPKPKTIVLPPNWKTARDPEGKIYYYHVITVQTQWDPPTWESPGDDAS [R32V]	-1.01 ± 0.14
SPPKPKTIVLPPNWKTARDPEGKIYYYHVITFQTQWDPPTWESPGDDAS [R32F]	-0.691 ± 0.21
SPPKPKTIVLPPNWKTARDPEGKIYYYHVITPQTQWDPPTWESPGDDAS [R32P]	-0.617 ± 0.057
SPPKPKTIVLPPNWKTARDPEGKIYYYHVITRQTQEDPPTWESPGDDAS [W36E]	-0.027 ± 0.037
SPPKPKTIVLPPNWKTARDPEGKIYYYHVITRQTQSDPPTWESPGDDAS [W36S]	0.171 ± 0.033
SPPKPKTIVLPPNWKTARDPEGKIYYYHVITRQTQGDPPTWESPGDDAS [W36G]	-0.152 ± 0.039
SPPKPKTIVLPPNWKTARDPEGKIYYYHVDTRQTQWDPPTWESPGDDAS [I30D]	-0.21 ± 0.08
SPPKPKTIVLPPNWKTARDPEGKIYYYHVQTRQTQWDPPTWESPGDDAS [I30Q]	-0.268 ± 0.11
SPPKPKTIVLPPNWKTARDPEGKIYYYHVETRQTQWDPPTWESPGDDAS [I30E]	-0.307 ± 0.044
SPPKPKTIVLPPNWKTARDPEGKIYYYHVITRQTQWDPPTWEYPGDDAS [S43Y]	-0.263 ± 0.097
SPPKPKTIVLPPNWKTARDPEGKIYYYHVITRQTQWDPPTWETPGDDAS [S43T]	-0.061 ± 0.082
SPPKPKTIVLPPNWKTARDPEGKIYYYHVITRQTQWDPPTWEIPGDDAS [S43I]	-0.095 ± 0.041
SPPKPKTIVLPPNWKYARDPEGKIYYYHVITRQTQWDPPTWESPGDDAS [T16Y]	-0.164 ± 0.1
SPPKPKTIVLPPNWKTAWDPEGKIYYYHVITRQTQWDPPTWESPGDDAS [R18W]	-0.31 ± 0.095
SPPKPKTIVLPPNWKTAEDPEGKIYYYHVITRQTQWDPPTWESPGDDAS [R18E]	-0.248 ± 0.1
SPPKPKTIVLPPNWKTAMDPEGKIYYYHVITRQTQWDPPTWESPGDDAS [R18M]	-0.086 ± 0.059
SPPKPKTIVLPPNWKTANDPEGKIYYYHVITRQTQWDPPTWESPGDDAS [R18N]	0.099 ± 0.2
SPPKPKMIVLPPNWKTARDPEGKIYYYHVITRQTQWDPPTWESPGDDAS [T7M]	0.026 ± 0.035

Variant	abundance fitness
SPPKPKDIVLPPNWKTARDPEGKIYYYHVITRQTQWDPPTWESPGDDAS [T7D]	-0.134 ± 0.079
SPPKPKTIVLPPNWKTARDPEGKIYYYHVITRQTQWRPPTWESPGDDAS [D37R]	-0.252 ± 0.049
SPPKPKTIVLPPNWKTARDPEGKIYYYHVITRQTQWDPPTWESPGDDAM [S49M]	-0.154 ± 0.33
SPPKPKTIVLPMNWKTARDPEGKIYYYHVITRQTQWDPPTWESPGDDAS [P12M]	-0.007 ± 0.036
SPPKPKTIVLPDNWKTARDPEGKIYYYHVITRQTQWDPPTWESPGDDAS [P12D]	-0.013 ± 0.076
SPPKPKTIVLPPNWKTARRPEGKIYYYHVITRQTQWDPPTWESPGDDAS [D19R]	-0.535 ± 0.042
SPPKPKTIVLPPNWKTARIPEGKIYYYHVITRQTQWDPPTWESPGDDAS [D19I]	-0.584 ± 0.26
SPPKLKTIVLPPNWKTARDPEGKIYYYHVITRQTQWDPPTWESPGDDAS [P5L]	0.125 ± 0.034
SPPKMKTIVLPPNWKTARDPEGKIYYYHVITRQTQWDPPTWESPGDDAS [P5M]	0.199 ± 0.065
SPPKEKTIVLPPNWKTARDPEGKIYYYHVITRQTQWDPPTWESPGDDAS [P5E]	0.057 ± 0.035
SPPKSKTIVLPPNWKTARDPEGKIYYYHVITRQTQWDPPTWESPGDDAS [P5S]	0.163 ± 0.044
SPPKPKTIVRPPNWKTARDPEGKIYYYHVITRQTQWDPPTWESPGDDAS [L10R]	-0.647 ± 0.06
SPPEPKTIVLPPNWKTARDPEGKIYYYHVITRQTQWDPPTWESPGDDAS [K4E]	-0.908 ± 0.12
SPPMPKTIVLPPNWKTARDPEGKIYYYHVITRQTQWDPPTWESPGDDAS [K4M]	-0.051 ± 0.076
SPPLPKTIVLPPNWKTARDPEGKIYYYHVITRQTQWDPPTWESPGDDAS [K4L]	-0.293 ± 0.034
SPPKPKTIVLPPNWKTARDPEGKIYYYHVITRQRQWDPPTWESPGDDAS [T34R]	0.109 ± 0.045
SPPKPKTIVLPPNWKTARDPEGKIYYYHVITRQKQWDPPTWESPGDDAS [T34K]	-0.605 ± 0.29
SPPKPKTIVLPPNWKTARDPEGKIYYYHVITRQAQWDPPTWESPGDDAS [T34A]	-0.296 ± 0.067
SPPKPKTIVLPPNWKTARDPEGKIYYYHVITRQTQWDPPTAESPGDDAS [W41A]	0.07 ± 0.058
SPPKPKTIVLPPNWKTARDPEGKIYYYHVITRQTQWDPPTWESIGDDAS [P44I]	-0.452 ± 0.18
SPPKPKTIVLPPNWKTARDPEGKIYYYHVITRQTQWDPPTWESFGDDAS [P44F]	-0.654 ± 0.25
SPPKPKTIVLPPNWKTARDPEGKIYYYHVITRQTQWDEPTWESPGDDAS [P38E]	-0.493 ± 0.12
SPPKPKTIVLPPNWKTARDPEGKIYYYHVITRQTQWDWPTWESPGDDAS [P38W]	-0.184 ± 0.059
SPPKPKTIVLPPNWKTARDPEGKIYYYHVITRQTQWDPATWESPGDDAS [P39A]	-0.918 ± 0.11
SPPKPKTIVLPPNWKTARDPEGKIYYYHVITRQTQWDPHTWESPGDDAS [P39H]	-0.748 ± 0.27
SPPKPKTIVLPPNWKTARDPEGKIYYYHVITRQTQWDPVTWESPGDDAS [P39V]	-0.894 ± 0.059
